Source: patent publication US20230192796A1

Columns and labels:
[1] = biological target: Human IL-10Rβ extracellular domain (20-220), biotinylated (human) (UniProt Q08334); assay: SPR; clone 5.1 immobilized, pre-bound with saturating soluble IL-10Rα; conditions: ligand
[2] = biological target: Human IL-10Rβ extracellular domain (20-220), biotinylated (human) (UniProt Q08334); assay: SPR; IL-10 clone 5.1 alone, immobilized; conditions: ligand
[3] = biological target: Human IL-10Rβ on cells (Daudi, Jurkat, YT-1, THP-1 cell lines; primary human PBMC populations) (human) (UniProt Q08334); assay: cell-based or functional assay
Chain of Human IL-10Rβ on cells (Daudi, Jurkat, YT-1, THP-1 cell lines; primary human PBMC populations) (human) (Q08334 20-325): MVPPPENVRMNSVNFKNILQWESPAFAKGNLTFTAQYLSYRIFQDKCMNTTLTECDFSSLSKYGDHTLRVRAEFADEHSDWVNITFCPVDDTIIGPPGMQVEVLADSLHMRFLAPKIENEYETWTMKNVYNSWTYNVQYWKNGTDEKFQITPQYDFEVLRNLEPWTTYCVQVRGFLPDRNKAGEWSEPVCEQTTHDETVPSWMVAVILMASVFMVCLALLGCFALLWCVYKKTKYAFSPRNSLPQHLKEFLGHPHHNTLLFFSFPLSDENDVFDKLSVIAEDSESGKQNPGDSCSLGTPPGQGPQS

Chain of Human IL-10Rβ extracellular domain (20-220), biotinylated (human) (Q08334 other isoform, or with tags, fused parts or gaps): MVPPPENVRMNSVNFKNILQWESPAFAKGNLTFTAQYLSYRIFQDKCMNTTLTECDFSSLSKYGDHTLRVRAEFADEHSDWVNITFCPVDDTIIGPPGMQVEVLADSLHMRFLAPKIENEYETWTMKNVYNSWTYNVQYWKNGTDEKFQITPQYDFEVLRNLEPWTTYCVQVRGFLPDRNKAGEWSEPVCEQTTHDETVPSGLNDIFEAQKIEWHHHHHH

Kd [1] | Kd [2] | phospho-STAT3 activity in YT-1 cells [3] | STAT3 activation relative to WT IL-10 in primary NK cells, B cells and T cells [3] | Substance
30 nM | 70 nM | – | – | Affinity matured IL-10 clone 5.1 (Super-10), soluble (from UniProt P22301 19-178)
– | – | 50% | – | IL-10 D25K variant (from UniProt P22301 19-178) (ligand)
– | – | 50% | 35 to 50% | IL-10 D25A/E96A variant (10-DE) (from UniProt P22301 19-178) (ligand)
